T1: CEACAM-5 in FFPE cancer cell lines and human tumor tissues (Homo sapiens, UniProt P06731)
T1 construct: formaldehyde fixed paraffin embedded (FFPE) cancer cell line microarrays (CMAs) and human tumor tissues; from tissue; host or cells: FFPE cancer cell line microarrays and human tumor tissues
T1 sequence (P06731 35-676): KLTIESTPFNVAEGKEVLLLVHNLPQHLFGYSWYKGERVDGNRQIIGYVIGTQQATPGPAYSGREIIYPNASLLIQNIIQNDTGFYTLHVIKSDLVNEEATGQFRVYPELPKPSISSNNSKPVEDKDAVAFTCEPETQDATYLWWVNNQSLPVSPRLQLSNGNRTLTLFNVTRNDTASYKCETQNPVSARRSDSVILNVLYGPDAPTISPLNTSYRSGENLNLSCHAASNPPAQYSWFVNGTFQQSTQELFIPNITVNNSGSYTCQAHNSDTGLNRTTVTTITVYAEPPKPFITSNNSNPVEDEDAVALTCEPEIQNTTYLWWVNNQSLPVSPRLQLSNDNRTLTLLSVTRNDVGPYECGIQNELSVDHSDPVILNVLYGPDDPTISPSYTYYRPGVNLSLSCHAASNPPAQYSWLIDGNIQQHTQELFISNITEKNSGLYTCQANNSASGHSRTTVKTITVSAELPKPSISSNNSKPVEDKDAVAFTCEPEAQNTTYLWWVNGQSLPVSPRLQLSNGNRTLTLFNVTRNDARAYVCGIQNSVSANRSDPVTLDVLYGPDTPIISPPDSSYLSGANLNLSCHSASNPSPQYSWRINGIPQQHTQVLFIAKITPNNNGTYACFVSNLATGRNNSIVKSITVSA

T2: CEACAM5 in cancer cell line lysates (Homo sapiens, UniProt P06731)
T2 construct: endogenous in cells; host or cells: CEACAM5-positive and -negative cancer cell lines (RIPA lysates)
T2 sequence (P06731 35-685): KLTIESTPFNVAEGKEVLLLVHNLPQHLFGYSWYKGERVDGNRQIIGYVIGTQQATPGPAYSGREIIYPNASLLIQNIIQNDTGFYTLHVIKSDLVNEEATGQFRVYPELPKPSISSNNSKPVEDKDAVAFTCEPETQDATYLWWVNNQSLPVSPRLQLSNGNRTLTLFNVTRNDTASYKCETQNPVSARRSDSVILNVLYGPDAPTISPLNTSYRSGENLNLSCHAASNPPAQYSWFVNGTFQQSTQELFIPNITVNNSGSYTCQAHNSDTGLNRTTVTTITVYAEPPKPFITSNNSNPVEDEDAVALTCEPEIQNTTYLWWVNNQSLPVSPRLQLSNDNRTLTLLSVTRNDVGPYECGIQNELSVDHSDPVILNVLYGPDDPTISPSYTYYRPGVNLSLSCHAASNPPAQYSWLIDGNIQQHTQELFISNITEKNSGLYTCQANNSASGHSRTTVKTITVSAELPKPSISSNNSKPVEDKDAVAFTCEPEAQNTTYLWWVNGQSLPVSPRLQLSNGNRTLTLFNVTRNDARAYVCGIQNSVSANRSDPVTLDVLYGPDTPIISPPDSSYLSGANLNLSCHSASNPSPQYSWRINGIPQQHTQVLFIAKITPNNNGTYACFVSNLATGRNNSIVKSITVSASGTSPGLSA


Key:
NCI-H441 = assay: Flow cytometry binding to cell lines; design: species or system human; conditions: 10 μg/mL primary antibody
Description: (§1) Method used: 5E5 to 1E6 cells were used for flow cytometry analyses using a BD FACSCanto II (BD Biosciences) in 5 mL polystyrene tubes. Staining with 10 μg/mL primary antibodies (mAb1, rb8G4, mouse monoclonal Agilent Dako #M7072 clone #IL7) and respective fluorescently labeled secondary antibodies (donkey anti-human IgG Jackson-Dianova #709-116-149; donkey anti-mouse IgG Jackson ImmunoResearch #715-116-150, donkey anti-rabbit IgG Jackson-Dianova #711-116-152) were conducted in 50 μL 1% PBS/BSA for 20 to 30 min at 4° C. Between and after staining steps, cells were washed thrice with 1% PBS/BSA and resuspended in 500 μL 1% PBS/BSA (including 0.2 μg/mL DAPI for live cell gating) for flow cytometry analyses. For data evaluation, FlowJo software (BD Biosciences) was used.

A549 = assay: Flow cytometry binding to cell lines; design: species or system human; conditions: 10 μg/mL primary antibody
Description: as §1

MDA-MB-468 = assay: Flow cytometry binding to cell lines; design: species or system human; conditions: 10 μg/mL primary antibody
Description: as §1

MKN-45 = assay: Flow cytometry binding to cell lines; design: species or system human; conditions: 10 μg/mL primary antibody
Description: as §1

[1] = biological target: T1, CEACAM-5 in FFPE cancer cell lines and human tumor tissues; assay: Immunohistochemistry on FFPE cell lines and human tissues
Description: For the IHC staining with the anti-CEACAM-5 antibody rb8G4, sections of 4 μm from formaldehyde fixed paraffin embedded (FFPE) cancer cell line microarrays (CMAs) and human tumor tissues were mounted on charged slides (SuperFrost Ultra Plus, Thermo Fisher Scientific or TOMO, Matsunami). The staining procedure was performed using a Discovery XT (Roche Diagnostics) staining platform. Following deparaffinization, the sections were heated for epitope retrieval in Tris-EDTA buffer pH 8 (CC1, Roche Diagnostics). The sections were incubated with the primary monoclonal antibody rb8G4 diluted to 0.5 or 0.7 μg/ml in phosphate-buffered saline (PBS) or antibody diluent buffer (DCS). The clone DA1E (rabbit monoclonal IgG, NEB) served as isotype control antibody. The primary antibodies were followed by the HQ anti-rabbit IgG detection kit (Roche Diagnostics). […]
CMAs and the TMA with human organ tissue were stained and scanned with the NanoZoomer (Hamamatsu) with a resolution of 0.46 μm/pixel. […] The scans of the CMAs were analyzed with the image analysis software HALO (Indica Labs, USA). For the determination of the amount of antigen present, positive brown stained area was calculated as percent area of the viable tissue area. Staining (arbitrary units) is calculated as […]

[2] = biological target: T2, CEACAM5 in cancer cell line lysates; assay: Western blot on cancer cell line lysates; type: binding; conditions: CEACAM5-positive and -negative cell line lysates
Description: Method used: Western blots were performed according to standard protocols (Sambrook, J. & Russell, D. W., 2001. Molecular Cloning: A Laboratory Manual, Volume 1, CSHL Press). For SDS-PAGE followed by membrane wet blotting, 15 μg total protein of RIPA cell lysates quantified by BCA kit (Thermo Scientific, #23227) were loaded per lane. Criterion XT 4-12% gels (Bio-Rad, #3450125) using MOPS running buffer (Bio-Rad #1610788) were used in a Criterion electrophoresis cell (Bio-Rad, #1656001). Transfer of proteins was confirmed by Ponceau staining. Membranes were washed before and in-between staining with 0.5 μg/mL to 1 μg/mL primary (mAb1 or rb8G4) and secondary antibodies (anti-human IgG, Jackson ImmunoResearch #109-035-098 or anti-rabbit IgG, CellSignaling #7074) was conducted. Stained membranes were visualized by ECL detection reagent using a Fusion FX imaging system (Vilber).

[3] = tested on: other human CEACAM family members (huCEACAM6, huCEACAM1, huCEACAM3, huCEACAM7, huCEACAM8, huPSG1); assay: Selectivity ELISA, different CEACAM proteins (Fab); type: binding; conditions: even when using 1000 nM Fab
Description: (§2) Selectivity determination for Fab of mAb1 to human CEACAM5 and other human CEACAM family members was done in ELISA assay. Proteins were coated on 96-well assay plates: huCEACAM5-His6 (R&D Systems #4128-CM), huCEACAM6-His6 (3934-CM R&D Systems and recombinant protein obtained from Syngene), huCEACAM1-His6 (2244-CM R&D Systems), huCEACAM3-His6 (C449 Novoprotein), huCEACAM7-His6 (C926 Novoprotein), huCEACAM8-His6 (C583 Novoprotein), huPSG1-His6 (CC66 Novoprotein), each protein was coating the plate at 12 nM concentration.

BSA = BSA (Bos taurus, UniProt P02769); assay: Selectivity ELISA, unrelated protein (Fab); type: binding; conditions: all concentrations tested
Description: as §2

[4] = biological target: cynomolgus_monkey-CEACAM5; assay: Binding affinity on Octet Red (Fab format); conditions: biotinylated Macaca fascicularis CEACAM5_ECD-His captured, KD=kd/ka
Description: • To determine the binding affinity of soluble antibody analyte to captured target protein CEACAM5 (human or cynomolgus monkey Macaca fascicularis).

Sequence of BSA (P02769 25-607): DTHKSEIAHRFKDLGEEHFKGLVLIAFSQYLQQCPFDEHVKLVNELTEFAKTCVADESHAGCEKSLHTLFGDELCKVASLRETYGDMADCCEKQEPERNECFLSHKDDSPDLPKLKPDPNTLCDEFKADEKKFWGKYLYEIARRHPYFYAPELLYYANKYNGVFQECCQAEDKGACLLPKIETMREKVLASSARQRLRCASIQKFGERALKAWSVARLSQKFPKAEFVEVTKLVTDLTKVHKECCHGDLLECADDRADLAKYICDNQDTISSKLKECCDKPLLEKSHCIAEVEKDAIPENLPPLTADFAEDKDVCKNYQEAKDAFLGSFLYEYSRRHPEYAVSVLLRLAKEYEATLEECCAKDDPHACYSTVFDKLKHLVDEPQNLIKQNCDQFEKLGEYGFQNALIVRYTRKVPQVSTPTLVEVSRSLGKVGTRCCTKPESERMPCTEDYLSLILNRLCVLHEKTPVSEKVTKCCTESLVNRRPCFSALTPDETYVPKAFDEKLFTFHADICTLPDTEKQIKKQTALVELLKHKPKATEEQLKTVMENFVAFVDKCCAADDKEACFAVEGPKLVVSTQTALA
Sequence of cynomolgus_monkey-CEACAM5 (as listed by the source): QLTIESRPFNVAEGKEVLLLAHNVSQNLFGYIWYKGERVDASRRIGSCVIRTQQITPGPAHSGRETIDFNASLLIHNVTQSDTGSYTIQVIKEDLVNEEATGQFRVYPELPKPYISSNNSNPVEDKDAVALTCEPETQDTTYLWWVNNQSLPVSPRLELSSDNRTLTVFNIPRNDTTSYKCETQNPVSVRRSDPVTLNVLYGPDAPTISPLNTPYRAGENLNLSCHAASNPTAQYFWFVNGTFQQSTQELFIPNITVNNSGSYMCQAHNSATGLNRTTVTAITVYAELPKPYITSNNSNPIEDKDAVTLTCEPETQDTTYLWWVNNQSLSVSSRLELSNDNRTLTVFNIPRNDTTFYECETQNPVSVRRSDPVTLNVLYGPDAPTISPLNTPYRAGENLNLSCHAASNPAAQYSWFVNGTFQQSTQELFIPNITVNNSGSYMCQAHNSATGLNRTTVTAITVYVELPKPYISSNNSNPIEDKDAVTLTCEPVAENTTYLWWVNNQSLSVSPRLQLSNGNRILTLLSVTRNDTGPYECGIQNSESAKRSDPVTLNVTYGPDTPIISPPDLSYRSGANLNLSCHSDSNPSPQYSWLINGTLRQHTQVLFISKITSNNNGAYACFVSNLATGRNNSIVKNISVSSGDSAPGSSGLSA

Molecule | Quotient of MFI of antibody divided by MFI of secondary antibody only control (NCI-H441) | Quotient of MFI of antibody divided by MFI of secondary antibody only control (A549) | Quotient of MFI of antibody divided by MFI of secondary antibody only control (MDA-MB-468) | Quotient of MFI of antibody divided by MFI of secondary antibody only control (MKN-45) | Pearson correlation coefficient r of IHC staining signal with CEACAM5 mRNA expression ([1]; 104 cancer cell lines, CCLE dataset) | IHC staining of human tumor tissue ([1]; colorectal, gastric, esophageal and non-small cell lung cancer) | CEACAM5 detection in Western blot [2] | Binding to the other human CEACAM family members [3] | Binding to unrelated protein (BSA) (BSA) | Kd [4]
rb8G4 (antibody) heavy: EVQLQESGPGLVKPSQTLSLTCTVSDGSVSRGGYYLTWIRQHPGKGLEWIGYIYYSGSTYFNPSLRSRVTMSVDTSKNQFSLKLSSVTAADTAVYYCARGIAVAPFDYWGQGTLVTVSSQPKAPSVFPLAPCCGDTPSSTVTLGCLVKGYLPEPVTVTWNSGTLTNGVRTFPSVRQSSGLYSLSSVVSVTSSSQPVTCNVAHPATNTKVDKTVAPSTCSKPTCPPPELLGGPSVFIFPPKPKDTLMISRTPEVTCVVVDVSEDDPEVQFTWYINNEQVRTARPPLREQQFNSTIRVVSTLPIAHEDWLRGKEFKCKVHNKALPAPIEKTISKARGQPLEPKVYTMGPPREELSSRSVSLTCMINGFYPSDISVEWEKNGKAEDNYKTTPAVLDSDGSYFLYSKLSVPTSEWQRGDVFTCSVMHEALHNHYTQKSISRSPGK light: EIVLTQSPATLSVSPGERATLSCRTSQSVRSNLAWYQQKPGQAPRLLIYAASTRATGIPARFSGSGSGTEFTLTISSLQSEDFAVYYCQQYTNWPFTFGPGTKVDIKRDPVAPSVLLFPPSKEELTTGTATIVCVANKFYPSDITVTWKVDGTTQQSGIENSKTPQSPEDNTYSLSSTLSLTSAQYNSHSVYTCEVVQGSASPIVQSFNRGDC | 3.2 | 1.1 | 1.0 | 36.2 | 0.88 | stained positive | specific to CEACAM5-positive cell lines |  |  | 
Fab of mAb1: Fab format of antibody mAb1 (antibody, V domains shown) VH: EVQLQESGPGLVKPSQTLSLTCTVSDGSVSRGGYYLTWIRQHPGKGLEWIGYIYYSGSTYFNPSLRSRVTMSVDTSKNQFSLKLSSVTAADTAVYYCARGIAVAPFDYWGQGTLVTVSS VL: EIVLTQSPATLSVSPGERATLSCRTSQSVRSNLAWYQQKPGQAPRLLIYAASTRATGIPARFSGSGSGTEFTLTISSLQSEDFAVYYCQQYTNWPFTFGPGTKVDIK |  |  |  |  |  |  |  | did not bind | did not bind | 14.1 ± 2.53 nM

Reference: patent US20250179210A1, “ANTI-CEACAM5 ANTIBODIES AND CONJUGATES AND USES THEREOF” (Merck Patent GmbH, priority 2022, published 2025)
